Where two headings read alike, the source gives them in different places.
T1: ^NmCXCL7-SA^C (Nap-2/mCXCL7 48-113 fused to mouse serum albumin) (mouse)
T1 construct: soluble form
T1 chain: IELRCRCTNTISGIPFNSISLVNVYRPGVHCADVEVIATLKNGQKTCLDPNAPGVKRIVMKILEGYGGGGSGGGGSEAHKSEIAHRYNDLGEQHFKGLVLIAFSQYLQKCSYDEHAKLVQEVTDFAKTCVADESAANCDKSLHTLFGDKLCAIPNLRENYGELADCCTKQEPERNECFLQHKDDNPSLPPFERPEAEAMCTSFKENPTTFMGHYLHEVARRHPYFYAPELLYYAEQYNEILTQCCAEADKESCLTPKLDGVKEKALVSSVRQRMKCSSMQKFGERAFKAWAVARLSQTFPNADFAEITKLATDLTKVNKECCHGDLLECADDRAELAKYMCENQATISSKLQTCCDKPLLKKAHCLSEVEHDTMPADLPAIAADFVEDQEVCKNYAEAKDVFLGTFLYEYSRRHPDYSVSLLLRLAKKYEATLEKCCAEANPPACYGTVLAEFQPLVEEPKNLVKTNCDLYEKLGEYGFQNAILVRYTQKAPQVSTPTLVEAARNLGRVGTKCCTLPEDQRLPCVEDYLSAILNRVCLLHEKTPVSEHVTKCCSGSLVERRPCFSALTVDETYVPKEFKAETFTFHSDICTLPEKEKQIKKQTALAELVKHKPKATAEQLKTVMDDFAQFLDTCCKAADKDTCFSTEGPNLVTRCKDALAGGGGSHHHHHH


Assays:
Test in all cases: scFv on yeast, soluble CXCL-SA; flow cytometry
[1] = molecular target: T2, ^NmCXCL1-SA^C (KC/mCXCL1 25-96 fused to mouse serum albumin) (mouse, UniProt P12850 25-96; P07724 25-608)
T2 construct: soluble form
Description: (§1) In brief, DNA plasmids encoding single protein binder clones were transformed into genetically modified Saccharomyces cerevisiae yeast cells (EBY100 strain) using Frozen-EZ Yeast Transformation II Kit (Zymo Research) and plated on selective SD-CAA solid agar media. Individual colonies were inoculated in 5 mL SD-SCAA cultures, grown to mid-log phase (0D600=2-5) in SD-CAA media at 30° C. with shacking (250 rpm). Cells were induced in galactose-containing SG-CAA media for 20 hours at 20° C. with shacking (250 rpm) as previously described (Angelini, A. et al. Protein Engineering and Selection Using Yeast Surface Display. Methods Mol Biol 1319, 3-36 (2015)). The binding assays were conducted in 96-well plates (Corning) containing 1×10⁴ induced cells per well. […] Yeast cells displaying protein binders were incubated with varying concentration of soluble CXC chemokine fusions (^NCXCL-SA^S) bearing the His6 tag and the primary chicken anti-c-myc epitope tag (1:1000) antibody (Gallus Immunotech) overnight at 4° C. with shaking (150 rpm). […] After primary incubation, cells were pelleted (2500× g for 5 min at 4° C.) and washed twice with 200 μL ice-cold PBSA buffer. Secondary labeling was performed with goat anti-chicken and mouse anti-His6 epitope tag antibodies conjugated to Alexa Fluor dyes at recommended dilutions.

[2] = molecular target: T3, ^NhCXCL1-SA^C (Groα/hCXCL1 35-107 fused to mouse serum albumin) (human; mouse, UniProt P09341 35-107; P07724 25-608)
T3 construct: soluble form; also called Groa
Description: as §1

[3] = molecular target: T2, ^NmCXCL1-SA^C (KC/mCXCL1 25-96 fused to …); remark: listed apart in the source
Description: as §1

[4] = molecular target: T4, ^NhCXCL3-SA^C (Groγ/hCXCL3 35-107 fused to mouse serum albumin) (human; mouse, UniProt P19876 35-107; P07724 25-608)
T4 construct: soluble form
Description: as §1

[5] = molecular target: T3, ^NhCXCL1-SA^C (Groα/hCXCL1 35-107 fused …); remark: listed apart in the source
Description: as §1

[6] = molecular target: T5, ^NhCXCL2-SA^C (Groβ/hCXCL2 35-107 fused to mouse serum albumin) (human; mouse, UniProt P19875 35-107; P07724 25-608)
T5 construct: soluble form
Description: as §1

[7] = molecular target: these chemokines (the six ELR+ CXC chemokines recognized by CK138)
[8] = molecular target: T6, ^NmCXCL5-SA^C (LIX/mCXCL5 48-118 fused to mouse serum albumin) (mouse, UniProt P50228 48-118; P07724 25-608)
T6 construct: soluble form
Description: as §1

[9] = molecular target: T7, ^NmCXCL2-SA^C (MIP-2/mCXCL2 28-100 fused to mouse serum albumin) (mouse, UniProt P10889 28-100; P07724 25-608)
T7 construct: soluble form
Description: as §1

[10] = molecular target: T8, ^NhCXCL8-SA^C (IL-8/hCXCL8 28-99 fused to mouse serum albumin) (human; mouse, UniProt P10145 28-99; P07724 25-608)
T8 construct: soluble form
Description: as §1

[11] = molecular target: T9, ^NhCXCL5-SA^C (ENA-78/hCXCL5 44-114 fused to mouse serum albumin) (human; mouse, UniProt P42830 44-114; P07724 25-608)
T9 construct: soluble form
Description: as §1

[12] = molecular target: T10, ^NmCXCL10-SA^C (Ip-10/mCXCL10 22-98 fused to mouse serum albumin) (mouse, UniProt P17515 22-98; P07724 25-608)
T10 construct: soluble form
Description: as §1

[13] = molecular target: T11, ^NmCXCL3-SA^C (DCIP-1/mCXCL3 28-100 fused to mouse serum albumin) (mouse, UniProt Q6W5C0 28-100; P07724 25-608)
T11 construct: soluble form
Description: as §1

[14] = molecular target: T6, ^NmCXCL5-SA^C (LIX/mCXCL5 48-118 fused …); remark: listed apart in the source
Description: as §1

[15] = molecular target: T7, ^NmCXCL2-SA^C (MIP-2/mCXCL2 28-100 …); remark: listed apart in the source
Description: as §1

[16] = molecular target: T12, ^NhCXCL6-SA^C (GCP-2/hCXCL6 43-114 fused to mouse serum albumin) (human; mouse, UniProt P80162 43-114; P07724 25-608)
T12 construct: soluble form
Description: as §1

[17] = molecular target: T13, ^NhCXCL4-SA^C (PF-4/hCXCL4 32-101 fused to mouse serum albumin) (human; mouse, UniProt P02776 32-101; P07724 25-608)
T13 construct: soluble form
Description: as §1

[18] = molecular target: T8, ^NhCXCL8-SA^C (IL-8/hCXCL8 28-99 fused …); remark: listed apart in the source
Description: as §1

[19] = molecular target: T9, ^NhCXCL5-SA^C (ENA-78/hCXCL5 44-114 …); remark: listed apart in the source
Description: as §1

five targets (of CK157) = molecular target: five targets (of CK157)
[20] = molecular target: T14, ^NhCXCL10-SA^C (IP-10/hCXCL10 22-98 fused to mouse serum albumin) (human; mouse, UniProt P02778 22-98; P07724 25-608)
T14 construct: soluble form
Description: as §1

[21] = molecular target: T15, ^NmCXCL11-SA^C (I-Tac/mCXCL11 22-100 fused to mouse serum albumin) (mouse, UniProt Q9JHH5 22-100; P07724 25-608)
T15 construct: soluble form
Description: as §1

[22] = molecular target: T16, ^NmCXCL4-SA^C (Pf-4/mCXCL4 30-105 fused to mouse serum albumin) (mouse, UniProt Q9Z126 30-105; P07724 25-608)
T16 construct: soluble form
Description: as §1

[23] = molecular target: T1, ^NmCXCL7-SA^C (Nap-2/mCXCL7 48-113 …)
Description: as §1

[24] = molecular target: T17, ^NhCXCL11-SA^C (I-TAC/hCXCL11 22-94 fused to mouse serum albumin) (human; mouse, UniProt O14625 22-94; P07724 25-608)
T17 construct: soluble form
Description: as §1

Kd [1] [nM]	Kd [2] [nM]	Kd [3] [nM]	Kd [4] [nM]	Kd [5] [nM]	Kd [6] [nM]	Kd [8] [nM]	Kd [9] [nM]	Kd [11] [nM]	Kd [12] [nM]	Kd [13] [nM]	Kd [14] [nM]	Kd [15] [nM]	Kd [16] [nM]	Kd [17] [nM]	Kd [19] [nM]	Binder	further results
0.93	0.79	1.1	5.7	1	13.9											CK129 (scFv, CK4 lineage) scFv: DIQMTQSPSPLSASVGDRVTITCRASQYGGYVAWYQQKPGKAPKLLIYGASLLYSGVPSRFSGGRSGTDFTLTISSLQPEDFATYYCQRGHALITFGQGTKVEIEGTTAASGSSGGSSSGAEVQLVESGGGLVQPGGSLRLSCAASGFNISSYGSMHWVRQAPGKGLEWVASIYPYSSSTYYADSVKGRFTISADTSKNTAYLQMNSLRAEDTAVYYCARGYGPWYAYSYFALDYWGQGTLVTVSS	fold increase in affinity (against the parental CK4 clone) [1]: 800 fold; fold increase in affinity (against the parental CK4 clone) [2]: 50 fold
34.8	61.9	35.7	349	41.5	267	193	36.2	5.8	500	10.9	176	29.1	153	167	5.8	CK138 (scFv, CK1 lineage) scFv: AIQMTRSPSSLSASVGDRVTITCRASQYHDGSAAWYQQKPGKAPKLLIYGASYLYSGVPSRFSGSRSGTDFTLTISSLQPEDFATYYCQQSSYSLITFGQGTKVEIKGTTAASGSSGGSSSGAEVQLVESDGGLVQPGGSLRLSCAASGFNLSYYGMHWVRQAPGKGLEWVAYIASYPGYTSYADSVKGRFTISADTSKNTAYLQMNSLRAEDTAVYYCARSGYSYSPYYSWFSAGMNYWGQGALVTVSS	fold improvement in affinity relative to the parental CK1 [7]: 30 to 340 fold; Kd [10]: 7.4 nM; Kd [18]: 6.9 nM
20.6	36.2	24.3	53.9	61.1	57.9	57.1	18.2	16.9	44.4	17.4	96.9	19.9	46.6	112	26.3	CK157 (scFv, CK2 lineage) scFv: DIQMTQSPSSLSASVGDRVTITCRASQSYGGVAWYQQKPGKAPKLLIYSASYLYSGVPSRFSGSRSGTDFTLTISSLQPEDFATYYCQQPSHLITFGQGTEVEIKGTTAASGSSGGSSSGAEVQLVESGGGLVQPGGSLRLSCAASGSNPYYYGGTHWVRQAPGEELEWVASIGSYPGYTDYADSVKGRFTISADTSKNTAYLQMNSLRAEDTAVYYCARHYYWYDATDYWGQGTLVTVSS	fold improvement in affinity compared to the initial CK2 (five targets (of CK157)): 20 to 55 fold; Kd [20]: 45.5 nM; Kd [21]: 124 nM; Kd [22]: 17.1 nM; Kd [23]: 13.6 nM; Kd [24]: 131 nM
